For series [1], the target named is T1, Toll-like receptor 4 (TLR4) (human, UniProt O00206 24-629).
T1 construct: Toll-like receptor 4 (TLR4) from the plasmid pEFBOS-TLR4 (Dr Kensuke Miyake); the introduction speaks of the extracellular domain of TLR4; human TLR4 (AAY82270.1) is named for the docking model; Cells were lysed with 0.3% Triton X-100, which may mean the whole receptor; Anchored to the sensor 'via the N terminus of the histidine tail'; also called biosensor-tethered TLR4
The experiment in a line: SPR; evanescent wave/resonant mirror optical biosensor (IAsys plus), called surface plasmon resonance by the paper; TLR4 covalently anchored (EDC/NHS) to carboxylate cuvettes, 1.3 ng/mm^2; NAMPT proteins soluble, 1 to 3 nM; PBS; 37 °C; monoexponential fit. The conditions noted are these: both partners purified. (In general: SPR reads the build-up and loss of mass on a sensor chip optically.)

Series [2] deals with the molecule itself. The experiment in a line: SEC; Superose 12 10/300 GL, 50 mM Hepes pH 7.5, 0.3 M NaCl; proteins loaded at 0.9 mg/ml; standards BSA, ovalbumin, carbonic anhydrase. (In gel filtration, larger molecules generally elute earlier.)

These results are taken from PMC8892085, “Molecular insights into the interaction between human nicotinamide phosphoribosyltransferase and Toll-like receptor 4” (The Journal of Biological Chemistry, 2022).

As usually defined, the Kd is the equilibrium constant for the complex coming apart. In general, koff refers to the first-order rate constant of dissociation. For orientation: kon means the second-order rate constant of association. By stoichiometry N is commonly meant the number of molecules, sites or subunits per partner or assembly.

T1 sequence (O00206 24-629): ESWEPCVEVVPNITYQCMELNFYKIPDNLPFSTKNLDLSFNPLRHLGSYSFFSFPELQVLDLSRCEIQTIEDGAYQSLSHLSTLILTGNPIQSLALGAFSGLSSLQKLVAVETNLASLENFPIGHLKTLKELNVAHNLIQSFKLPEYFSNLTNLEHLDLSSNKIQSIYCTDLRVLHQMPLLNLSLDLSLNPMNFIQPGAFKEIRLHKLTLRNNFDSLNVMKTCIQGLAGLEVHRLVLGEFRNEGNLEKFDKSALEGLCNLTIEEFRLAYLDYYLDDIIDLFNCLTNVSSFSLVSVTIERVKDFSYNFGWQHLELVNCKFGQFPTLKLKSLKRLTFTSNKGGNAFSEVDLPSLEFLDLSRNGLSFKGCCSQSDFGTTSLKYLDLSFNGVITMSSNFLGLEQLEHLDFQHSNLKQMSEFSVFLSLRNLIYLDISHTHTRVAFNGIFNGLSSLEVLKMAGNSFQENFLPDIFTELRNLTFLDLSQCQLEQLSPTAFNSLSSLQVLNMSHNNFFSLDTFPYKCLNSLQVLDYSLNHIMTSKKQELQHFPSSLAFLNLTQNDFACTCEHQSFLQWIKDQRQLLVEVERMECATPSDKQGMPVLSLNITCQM

B1: NAMPT β-loop deletion mutant Δ(42>51) (enzyme, human)
chain: MNPAAEAEFNILLATDSYKVTHYKQYPPNTSKVYSYFECREVKYEETVFYGLQYILNKYLKGKVVTKEKIQEAKDVYKEHFQDDVFNEKGWNYILEKYDGHLPIEIKAVPEGFVIPRGNVLFTVENTDPECYWLTNWIETILVQSWYPITVATNSREQKKILAKYLLETSGNLDGLEYKLHDFGYRGVSSQETAGIGASAHLVNFKGTDTVAGLALIKKYYGTKDPVPGYSVPAAEHSTITAWGKDHEKDAFEHIVTQFSSVPVSVVSDSYDIYNACEKIWGEDLRHLIVSRSTQAPLIIRPDSGNPLDTVLKVLEILGKKFPVTENSKGYKLLPPYLRVIQGDGVDINTLQEIVEGMKQKMWSIENIAFGSGGGLLQKLTRDLLNCSFKCSYVVTNGLGINVFKDPVADPNKRSKKGRLSLHRTPAGNFVTLEEGKGDLEEYGQDLLHTVFKNGKVTKSYSFDEIRKNAQLNIELEAAHH
notes: nicotinamide phosphoribosyltransferase (NAMPT), human, UniProt P43490; pET15b plasmid changed with the In-Fusion kit; the β1-β2 K-rich loop fully deleted; also called ΔK(42>51); β-loop deleted mutant; source: ClearColi BL21 (DE3), purified (Ni-NTA, PD10; ε-poly-L-lysine resin to remove endotoxin)
In the case of B1, in series [1], the Kd turned out to be 218 nM, the koff is 0.07 ± 0.02 s⁻¹ and the kon is 320000 M⁻¹ s⁻¹. Besides, the “stoichiometry N” value in series [2] is 2.

B2: human nicotinamide phosphoribosyltransferase (NAMPT), wildtype (enzyme)
chain: MNPAAEAEFNILLATDSYKVTHYKQYPPNTSKVYSYFECREKKTENSKLRKVKYEETVFYGLQYILNKYLKGKVVTKEKIQEAKDVYKEHFQDDVFNEKGWNYILEKYDGHLPIEIKAVPEGFVIPRGNVLFTVENTDPECYWLTNWIETILVQSWYPITVATNSREQKKILAKYLLETSGNLDGLEYKLHDFGYRGVSSQETAGIGASAHLVNFKGTDTVAGLALIKKYYGTKDPVPGYSVPAAEHSTITAWGKDHEKDAFEHIVTQFSSVPVSVVSDSYDIYNACEKIWGEDLRHLIVSRSTQAPLIIRPDSGNPLDTVLKVLEILGKKFPVTENSKGYKLLPPYLRVIQGDGVDINTLQEIVEGMKQKMWSIENIAFGSGGGLLQKLTRDLLNCSFKCSYVVTNGLGINVFKDPVADPNKRSKKGRLSLHRTPAGNFVTLEEGKGDLEEYGQDLLHTVFKNGKVTKSYSFDEIRKNAQLNIELEAAHH
notes: nicotinamide phosphoribosyltransferase (NAMPT), human, UniProt P43490; also called WT; HsNAMPT; source: ClearColi BL21 (DE3), purified (Ni-NTA, PD10; ε-poly-L-lysine resin to remove endotoxin)
For the molecule B2, in series [1], the Kd is 17.8 nM, the koff came to 0.005 ± 0.001 s⁻¹ and the kon is 280000 M⁻¹ s⁻¹. Also, in series [2], the “stoichiometry N” value is 2.

B3: NAMPT α-loop double mutant K(68/71)S (enzyme, human)
chain: MNPAAEAEFNILLATDSYKVTHYKQYPPNTSKVYSYFECREKKTENSKLRKVKYEETVFYGLQYILNSYLSGKVVTKEKIQEAKDVYKEHFQDDVFNEKGWNYILEKYDGHLPIEIKAVPEGFVIPRGNVLFTVENTDPECYWLTNWIETILVQSWYPITVATNSREQKKILAKYLLETSGNLDGLEYKLHDFGYRGVSSQETAGIGASAHLVNFKGTDTVAGLALIKKYYGTKDPVPGYSVPAAEHSTITAWGKDHEKDAFEHIVTQFSSVPVSVVSDSYDIYNACEKIWGEDLRHLIVSRSTQAPLIIRPDSGNPLDTVLKVLEILGKKFPVTENSKGYKLLPPYLRVIQGDGVDINTLQEIVEGMKQKMWSIENIAFGSGGGLLQKLTRDLLNCSFKCSYVVTNGLGINVFKDPVADPNKRSKKGRLSLHRTPAGNFVTLEEGKGDLEEYGQDLLHTVFKNGKVTKSYSFDEIRKNAQLNIELEAAHH
notes: nicotinamide phosphoribosyltransferase (NAMPT), human, UniProt P43490; mutagenised pET15b plasmid; K68 and K71 replaced with serine; source: ClearColi BL21 (DE3), purified (Ni-NTA, PD10; ε-poly-L-lysine resin to remove endotoxin)
B3: in series [1], the Kd turned out to be 20.8 nM, the koff amounted to 0.01 ± 0.004 s⁻¹ and the kon worked out at 480000 M⁻¹ s⁻¹. In addition, the “stoichiometry N” value in series [2] was 2.

B4: NAMPT β-loop full mutant K/R(42>51)A (enzyme, human)
chain: MNPAAEAEFNILLATDSYKVTHYKQYPPNTSKVYSYFECREAATENSALAAVKYEETVFYGLQYILNKYLKGKVVTKEKIQEAKDVYKEHFQDDVFNEKGWNYILEKYDGHLPIEIKAVPEGFVIPRGNVLFTVENTDPECYWLTNWIETILVQSWYPITVATNSREQKKILAKYLLETSGNLDGLEYKLHDFGYRGVSSQETAGIGASAHLVNFKGTDTVAGLALIKKYYGTKDPVPGYSVPAAEHSTITAWGKDHEKDAFEHIVTQFSSVPVSVVSDSYDIYNACEKIWGEDLRHLIVSRSTQAPLIIRPDSGNPLDTVLKVLEILGKKFPVTENSKGYKLLPPYLRVIQGDGVDINTLQEIVEGMKQKMWSIENIAFGSGGGLLQKLTRDLLNCSFKCSYVVTNGLGINVFKDPVADPNKRSKKGRLSLHRTPAGNFVTLEEGKGDLEEYGQDLLHTVFKNGKVTKSYSFDEIRKNAQLNIELEAAHH
notes: nicotinamide phosphoribosyltransferase (NAMPT), human, UniProt P43490; mutagenised pET15b plasmid; the entire set of positive residues of the β1-β2 K-rich loop (residues 42-51) replaced with alanine; source: ClearColi BL21 (DE3), purified (Ni-NTA, PD10; ε-poly-L-lysine resin to remove endotoxin)
For the molecule B4, in series [1], the Kd was 630 nM, the koff was 0.085 ± 0.023 s⁻¹ and the kon was found to be 130000 M⁻¹ s⁻¹. In addition, the “stoichiometry N” value in series [2] is 2.

B5: NAMPT α-loop triple mutant K(68>73)A (enzyme, human)
chain: MNPAAEAEFNILLATDSYKVTHYKQYPPNTSKVYSYFECREKKTENSKLRKVKYEETVFYGLQYILNAYLAGAVVTKEKIQEAKDVYKEHFQDDVFNEKGWNYILEKYDGHLPIEIKAVPEGFVIPRGNVLFTVENTDPECYWLTNWIETILVQSWYPITVATNSREQKKILAKYLLETSGNLDGLEYKLHDFGYRGVSSQETAGIGASAHLVNFKGTDTVAGLALIKKYYGTKDPVPGYSVPAAEHSTITAWGKDHEKDAFEHIVTQFSSVPVSVVSDSYDIYNACEKIWGEDLRHLIVSRSTQAPLIIRPDSGNPLDTVLKVLEILGKKFPVTENSKGYKLLPPYLRVIQGDGVDINTLQEIVEGMKQKMWSIENIAFGSGGGLLQKLTRDLLNCSFKCSYVVTNGLGINVFKDPVADPNKRSKKGRLSLHRTPAGNFVTLEEGKGDLEEYGQDLLHTVFKNGKVTKSYSFDEIRKNAQLNIELEAAHH
notes: nicotinamide phosphoribosyltransferase (NAMPT), human, UniProt P43490; mutagenised pET15b plasmid; source: ClearColi BL21 (DE3), purified (Ni-NTA, PD10; ε-poly-L-lysine resin to remove endotoxin)
Regarding B5, in series [1], the Kd amounted to 1280 nM, the koff was 0.004 ± 0.002 s⁻¹ and the kon turned out to be 3100 M⁻¹ s⁻¹. Also, the “stoichiometry N” value in series [2] was 2.

B6: NAMPT β-loop double mutant K(42/48)A (enzyme, human)
chain: MNPAAEAEFNILLATDSYKVTHYKQYPPNTSKVYSYFECREAKTENSALRKVKYEETVFYGLQYILNKYLKGKVVTKEKIQEAKDVYKEHFQDDVFNEKGWNYILEKYDGHLPIEIKAVPEGFVIPRGNVLFTVENTDPECYWLTNWIETILVQSWYPITVATNSREQKKILAKYLLETSGNLDGLEYKLHDFGYRGVSSQETAGIGASAHLVNFKGTDTVAGLALIKKYYGTKDPVPGYSVPAAEHSTITAWGKDHEKDAFEHIVTQFSSVPVSVVSDSYDIYNACEKIWGEDLRHLIVSRSTQAPLIIRPDSGNPLDTVLKVLEILGKKFPVTENSKGYKLLPPYLRVIQGDGVDINTLQEIVEGMKQKMWSIENIAFGSGGGLLQKLTRDLLNCSFKCSYVVTNGLGINVFKDPVADPNKRSKKGRLSLHRTPAGNFVTLEEGKGDLEEYGQDLLHTVFKNGKVTKSYSFDEIRKNAQLNIELEAAHH
notes: nicotinamide phosphoribosyltransferase (NAMPT), human, UniProt P43490; mutagenised pET15b plasmid; K42 and K48 replaced with alanine; source: ClearColi BL21 (DE3), purified (Ni-NTA, PD10; ε-poly-L-lysine resin to remove endotoxin)
Take B6: in series [1], the Kd was determined as 37.1 nM, the koff is 0.029 ± 0.003 s⁻¹ and the kon is 780000 M⁻¹ s⁻¹. In addition, in series [2], the “stoichiometry N” value amounted to 2.
